What all share (test): SPR
The target of one series is T1, tCid1 mutant 2 (Schizosaccharomyces pombe, UniProt O13833 33-405, K321A;R323A).
T1 sequence: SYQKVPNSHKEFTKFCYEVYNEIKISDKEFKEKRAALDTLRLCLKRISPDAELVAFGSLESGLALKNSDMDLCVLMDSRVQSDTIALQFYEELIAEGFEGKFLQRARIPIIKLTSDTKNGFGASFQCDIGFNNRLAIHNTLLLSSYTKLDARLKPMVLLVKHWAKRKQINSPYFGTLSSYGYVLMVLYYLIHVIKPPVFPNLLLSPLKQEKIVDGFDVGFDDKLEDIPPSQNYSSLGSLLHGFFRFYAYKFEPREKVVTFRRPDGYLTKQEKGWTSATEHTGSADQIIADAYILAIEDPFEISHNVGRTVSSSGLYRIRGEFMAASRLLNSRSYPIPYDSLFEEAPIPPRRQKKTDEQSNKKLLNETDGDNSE

The next series addresses T2, tCid1 mutant 1 (Schizosaccharomyces pombe, UniProt O13833 33-405, K133A;R137A).
T2 sequence: T1 sequence with K101A, R105A, A289K, A291R

For another series, the target named is T3, tCid1 (wild type) (Schizosaccharomyces pombe, UniProt O13833 33-405).
T3 sequence: T1 sequence with A289K, A291R

Another series addresses T4, tCid1 mutant 3 (Schizosaccharomyces pombe, UniProt O13833 33-405, R277A;K282A).
T4 sequence: T1 sequence with R245A, K250A, A289K, A291R

Changes are numbered by the printed parent chain.

By Kd is commonly meant the equilibrium constant for the complex coming apart. Higher therefore signals a looser complex.

B1: 21 nt SPR RNA (ssRNA)
RNA: GAUUUGACGUUGGUUUUGACG
Consider B1, for which the Kd with tCid1 mutant 2 is around 450 nM; in the series with tCid1 mutant 1 it was around 200 nM; in the series with tCid1 (wild type), around 100 nM; in the series with tCid1 mutant 3 it was around 410 nM.

These data come from paper PMC4342108.
